# Test results from patent US20180244756A1 (US Dept. of Health and Human Services, published 2018).
# T1: MERS-CoV S-[change] protein, England1 strain (MERS-CoV, England1 strain, UniProt K9N5Q8 19-1290)
# T1 sequence: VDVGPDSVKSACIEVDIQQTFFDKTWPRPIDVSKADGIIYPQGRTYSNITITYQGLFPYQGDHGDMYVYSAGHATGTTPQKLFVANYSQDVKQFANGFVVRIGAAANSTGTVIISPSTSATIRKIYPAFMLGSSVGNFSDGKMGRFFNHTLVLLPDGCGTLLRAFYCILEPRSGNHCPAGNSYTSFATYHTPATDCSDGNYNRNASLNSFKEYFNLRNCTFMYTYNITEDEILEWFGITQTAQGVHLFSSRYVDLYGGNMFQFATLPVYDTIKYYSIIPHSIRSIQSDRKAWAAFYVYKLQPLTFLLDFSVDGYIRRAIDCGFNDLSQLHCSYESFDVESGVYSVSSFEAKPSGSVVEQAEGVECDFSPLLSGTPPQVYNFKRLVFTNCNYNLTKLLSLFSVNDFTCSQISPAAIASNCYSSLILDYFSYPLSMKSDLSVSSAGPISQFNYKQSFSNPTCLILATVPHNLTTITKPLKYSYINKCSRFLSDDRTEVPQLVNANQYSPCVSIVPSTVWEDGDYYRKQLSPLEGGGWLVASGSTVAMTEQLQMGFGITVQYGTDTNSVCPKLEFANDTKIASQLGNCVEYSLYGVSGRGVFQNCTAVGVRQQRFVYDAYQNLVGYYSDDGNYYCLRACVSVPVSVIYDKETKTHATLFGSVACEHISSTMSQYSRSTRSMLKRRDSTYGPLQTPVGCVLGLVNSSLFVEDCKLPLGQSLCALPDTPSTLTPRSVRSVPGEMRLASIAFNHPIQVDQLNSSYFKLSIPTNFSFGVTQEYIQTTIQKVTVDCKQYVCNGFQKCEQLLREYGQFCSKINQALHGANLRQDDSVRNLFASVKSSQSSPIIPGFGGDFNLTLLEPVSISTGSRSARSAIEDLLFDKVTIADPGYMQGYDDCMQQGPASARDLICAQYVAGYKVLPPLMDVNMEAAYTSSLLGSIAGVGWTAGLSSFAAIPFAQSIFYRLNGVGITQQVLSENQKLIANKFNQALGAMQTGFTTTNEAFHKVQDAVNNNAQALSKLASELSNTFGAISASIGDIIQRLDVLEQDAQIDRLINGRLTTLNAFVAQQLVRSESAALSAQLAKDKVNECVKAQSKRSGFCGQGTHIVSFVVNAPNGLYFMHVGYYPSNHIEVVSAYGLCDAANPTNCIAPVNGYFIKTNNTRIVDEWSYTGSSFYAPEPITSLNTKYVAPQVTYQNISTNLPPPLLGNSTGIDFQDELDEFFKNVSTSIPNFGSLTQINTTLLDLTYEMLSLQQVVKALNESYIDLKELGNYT
# Target: T1, MERS-CoV S-[change] protein, England1 …
# Test: ELISA, hybridoma supernatant
row,Binder,ELISA (unit not given)
1,"G4 antibody (antibody, V domains shown) VH: QVQLQQSGPELVRPGVSVKISCKGSGYTFTDYAIHWVKQSHAKSLEWIGVFSTYYGNTNYNQKFKGRATMTVDKSSSTAYMELARLTSEDSAIYYCARKSYYVDYVDAMDYWGQGTSVTVSS VL: not shown",2.8
2,"G2 antibody (antibody, V domains shown) VH: QVQLQQSGGELVKPGASVKLSCKTSGFTFSSSYISWLKQKPGQSLEWIAWIYAGTGGTEYNQKFTGKAQVTVDTSSSTAYMQFSSLTTEDSAIYYCARGGSSFAMDYWGQGTSVTVSS VL: not shown",0.58
